Assay results taken from article PMC9430930.

system: NupR (NagR2) (Bacillus thuringiensis BMB171), ORF:032de0b7; test: EMSA; settings: NupR: 10 mM Tris-HCl pH 7.5, 50 mM NaCl, 0.5 mM DTT, 4% glycerol, 200 ng poly(dI-dC), 25 C 30 min, ComK/CcpA/PurR: 10 mM Tris-HCl pH 8.0, 50 mM KCl

Row | Sequence | binding
1 | CGCATTTCAATTATTCGACCTCTGATGTAAGACTTCTTTTCTCTTTTTTCAACTTACAACATAGTACAAATGACTAAACACCAAAATAAGTGTAATTGTCGAATAAATAATAATAATTTTTTAAAATAAAATTTTCACTCTTTATTGCATAAAAAAAACTTTGCACCATAAACATTCCTCATTTCGAGAAAAAGTTCGGCACAAAGATCCTTTACATCCTTTGTTACACACTTTTCCCCTCATAGTCTAGCAATTCATGGTTGCC (double strand) [nagR2 (nupR) promoter] | binds
2 | CTAATACAACACGGTTAATACCTTTTTTCATTTCAAAATTCCTCGCAATTTCATTGATTTTATTATGTAAGATAATACGTCTTACTTCTATAGAGTCATATCTAGTTTATTACATTTTATAAAAGATATTCAAGTATTTGAAAATGTATCCGTGCAAATCCGCGAACAAAACATAGGAATTCAGTGAACCGAATATAATTCAGTAAAATCCTTTGTAAAAGGGGAAATGGCATGG (double strand) [ldh promoter] | binds
3 | GGTGAAATAGTATGGTCATCACGTAATAAAGTATCATCTAAATCTAAAACAATCATTTTATAAGTCATATAGAAAATTCCTTTCTTTAATTGAAATCAAAATACATGTTCATGAAGATGTTGAGGAATAATAGTAAGACATCAAACCTCTTTGAAAAGAAGTAGATAAATTATTATGAGTTGTTGCTCATAATATTGGTTAATAATCATTGGGGAAGAATAAAACCCCAATGATTAAAGTTTGATTTTATCGTAACAACTCTAAAGGTAGAGTGCAATAATGGAAGTT (double strand) [had promoter] | binds
4 | TGCATACTTACTCACCATCCCATTAGAACAATCTAATTTTTTGAGTTGTCATACCACTACAATAATGTGAATTCGACAATTTTTGATATGAAATAATGCATAATATATATAAAATTCGGCAAATTTTTCATACAATTCATCTCACATACAATAATAGATTAGGAGTGTTATAGATGAATTATAG (double strand) [baci promoter] | binds
